Changes are numbered by the printed parent chain. Read-outs that look alike come from different tables or passages of the source.
B1: H'-HJ (structured_DNA)
DNA 1: CCAGACAGCAGTTATCAATTTGTTGGGACGGAGG
DNA 2: CCTTCAACCACCGCTCATGATTACTGCTGTCTGG
DNA 3: CCTCCGTCCCAACAAATGGCTGCTACCGGAAGGG
DNA 4: AAAAACCCTTCCGGTAGCAGCCTGAGCGGTGGTTGAAGG
B2: H1-HJ (structured_DNA)
DNA 1: CCAGACAGCAGTAATCAACTACTTAGGACGGAGG
DNA 2: B1 DNA 2
DNA 3: B1 DNA 3 with C10T, C13G, A14T, A16G
DNA 4: B1 DNA 4

Columns and labels:
Assay in all cases: MST
[1] = molecular target: T1, WtIHF (wild-type integration host factor) (E. coli, UniProt P0A6X7;P0A6Y1 1-99;1-94)
T1 sequence (P0A6X7 whole entry, chain 1 of 2): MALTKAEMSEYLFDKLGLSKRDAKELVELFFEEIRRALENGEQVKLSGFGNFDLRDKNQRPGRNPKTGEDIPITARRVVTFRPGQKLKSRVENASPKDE
T1 sequence (P0A6Y1 whole entry, chain 2 of 2): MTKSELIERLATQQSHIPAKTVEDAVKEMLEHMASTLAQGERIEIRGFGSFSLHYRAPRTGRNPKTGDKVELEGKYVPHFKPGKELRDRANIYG

[2] = molecular target: T1, WtIHF (wild-type integration host …); remark: listed apart in the source
[3] = molecular target: T1, WtIHF (wild-type integration host …); remark: listed apart in the source

| Binder | Kd [1] | Kd [2] | Kd [3] |
| --- | --- | --- | --- |
| B1 | 2.8 ± 0.5 nM | 12 ± 0.89 nM | 13.6 ± 2.21 nM |
| B2 | 11 ± 1.6 nM | 7.75 ± 1.1 nM | 7.09 ± 0.93 nM |
